From US20210269549A1, “ANTI-SAS1B ANTIBODIES, ASSOCIATED METHODS OF USE, AND COMPOSITIONS AND METHODS FOR DETECTING AND TREATING CANCER” (UNIVERSITY OF VIRGINIA PATENT FOUNDATION, priority 2015, published 2021)
Substitutions are numbered along the chain they refer to.

B1: SB2: mouse anti-human SAS1B monoclonal antibody, IgG2b; VH SEQ ID NO:14, VL SEQ ID NO:15 (antibody, listed as Mus musculus, V domains shown)
VH: EVQLQQSGPELVKPGSSVKISCKASGYTFTDYNMVWVKQSHGKSLEWIGAVNPNNGGTSYNQKFKGKATLTVDKSSSTAYMELRSLTSEDSAVYYCVPNWDWFAYWGQGTLVTVSA
VL: DVLMTQTPLSLPVSLGDQASISCRSSQSLVHSNGNTYLEWYLQKPGQSPNLLIYKVSNRFSGVPDRFSGSGSGTDFTLKISRVEAEDLGVYYCFQGSHVPFTFGSGTKLEIK
B2: SB4: mouse anti-human SAS1B monoclonal antibody, IgG2a; VH SEQ ID NO:16, VL SEQ ID NO:17 (antibody, listed as Mus musculus, V domains shown)
VH: B1 VH with A24P, V37M, V51I, S59T, V97A
VL: B1 VL with L29I, V30L, N50K
B3: SB5: mouse anti-human SAS1B monoclonal antibody, IgG2b; VH SEQ ID NO:16, VL SEQ ID NO:18 (antibody, listed as Mus musculus, V domains shown)
VH: B1 VH with A24P, V37M, V51I, S59T, V97A
VL: B1 VL with T7I, L29I, V30L, N50K

Key:
[1] = system: uterine cancer cell line (MMMT539); assay: Morphology of uterine cancer cells after 93 h of anti-SAS1B antibody drug treatment; format: cell-based, human; settings: 0.1 nM mAb with 15 nM Fab-DMDM
Method: The morphology of uterine cancer cell line (SNU539) and uterine cancer cell line (MMMT539) after 93 h of anti-SAS1B antibody drug treatment were examined.

SAS1B+ tumor cell lines = assay: Confocal immunofluorescence microscopy on live cells (FIG. 25); format: cell-based
Description: Bioassays to select therapeutic and diagnostic mAbs have focused on two strategies: 1) identification of mAbs reactive with recombinant SAS1B, endogenous SAS1B, and with SAS1B accessible on cell surfaces; and 2) mAbs that recognize epitopes preserved in formalin fixed paraffin embedded sections that work as immuno-cytochemical probes. […] These transfected cells provide one effective screening tool to identify mAbs reactive with native epitopes on SAS1B. Another screening assay is to study SAS1B+ tumor cell lines by immunofluorescence microscopy and FACS. mAbs that recognize SAS1B at the surface of live cells and gate specific cell populations by FACS have been isolated. […] Efforts to identify mAbs that localize SAS1B in fixed embedded sections have also yielded reagents of utility for histopathology. […] Thus the non-human primate ovary can be used as a positive control tissue for studying the histopathology of tumor specimens with these reagents.

[2] = biological target: T1, recombinant human SAS1B antigen (Homo sapiens, UniProt Q6HA08); assay: Capture assay by sandwich ELISA; format: binding; settings: SB2 coupled to magnetic beads, SB5 coupled to HRP as detection agent, 96 well ELISA format
T1 sequence (Q6HA08 24-431): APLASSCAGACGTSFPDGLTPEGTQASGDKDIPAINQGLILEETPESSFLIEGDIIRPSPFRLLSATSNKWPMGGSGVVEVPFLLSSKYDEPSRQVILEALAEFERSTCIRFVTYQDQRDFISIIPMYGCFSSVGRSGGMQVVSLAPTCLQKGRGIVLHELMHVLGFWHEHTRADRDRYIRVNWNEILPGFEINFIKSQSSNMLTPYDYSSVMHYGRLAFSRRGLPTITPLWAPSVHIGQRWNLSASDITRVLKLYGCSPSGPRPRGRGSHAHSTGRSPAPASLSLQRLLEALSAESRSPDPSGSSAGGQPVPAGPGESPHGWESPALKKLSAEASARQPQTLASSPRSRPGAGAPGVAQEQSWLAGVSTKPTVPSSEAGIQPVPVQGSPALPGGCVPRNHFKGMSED
Description: The antibodies were used to develop a capture assay by sandwich ELISA. The support was a magnetic bead (MB) coupled to SB2, SB3, SB4, or SB5 mAbs. The antigen was a recombinant human SAS1B antigen. Detection was accomplished with mAbs SB2, SB3, SB4, SB5 conjugated with HRP. A HRP substrate was used and TMB was used for quantitation.
The retention of HRP activity after conjugations to SASB1 SB2, SB3, SB4, SB5, and anti-CABYR monoclonal antibody 3A4 was examined. The assay method detected 0.2 femtomole of IgGs. Where SB2 is coupled to magnetic beads and SB5 coupled to HRP is used as a detection agent in a 96 well ELISA format 2.7 pmole/ml of rhSAS1B can be detected.

[3] = system: renal cell carcinoma cell line (M1); assay: Morphology of renal cell carcinoma cell line (M1) after 93 h of antibody drug treatment; format: cell-based; settings: 1 nM mAb with 15 nM Fab-DMDM
Method: The morphology of renal cell carcinoma cell line (M1) after 93 h of anti-EGFR antibody drug treatment was examined.

[4] = system: human uterine cancer cells (MMMT539); assay: Antibody drug conjugate cytotoxicity (ADC) assay, MMMT539; format: cell-based; settings: 0.1 nM mAb, Fab-DMDM constant at 15 nM, ~90 h
Method: The cytotoxic effect of anti-human SAS1B mAbs SB2 and SB5 on human uterine cancer cells (MMMT539) was examined by antibody drug conjugate cytotoxicity (ADC) assay. Human uterine cancer cells MMMT539 were seeded in triplicate on 96 well plate overnight and then treated with SB2 or SB5 and anti-mouse Fab-cleavable-Duocarmycin complex for ˜90 h. The presence of viable live cells per well was measured by total cellular ATP content in relative luminescence unit (RLU). Viability of control live cells (100%) was determined from average of 9 wells in terms of total cellular ATP (in RLU) containing the constant 15 nM Fab-CL-DMDM for each set of antibody/reagent. […] Staurosporine, a general protein kinase inhibitor, was used to induce apoptosis in 1% DMSO as a positive control for the assay.

[5] = system: PDAC cell line known as 366; assay: Live indirect immunofluorescence cell surface staining, 366; format: cell-based, human; settings: for Cells staining for cell surface SAS1B: 366, primary antibody 20 ug/mL; for Recognition of cell surface SAS1B: live 366 cells, primary antibodies 20 ug/mL
Method: (§1) Live MPanc96 cells (pancreatic ductal adenocarcinoma cell line) were incubated with different anti-SAS1B monoclonal antibodies (as well as DAPI stain) for nucleus localization. Cells were fixed and permeabilized after primary and secondary antibody incubation thus fluorescence staining observed represents surface localized SAS1B. Monoclonal antibodies SB4 and SB5 were used, as well as normal rabbit or mouse IgG's as a negative control. All primary antibodies were used at a concentration of 20 ug/mL.
(§2) The live indirect immunofluorescence protocol is as follows. The cells were dissociated with Acutase and plated on fibronectin coated coverslips. MPanc96 cells were allowed to grow 2-3 days and 366 cells were allowed to grow for 3-4 days. The cells were blocked (blocking 1 solution) with 5% NGS in media for 30 min at RT and then blocked with 5% NGS in chilled media+0.1% sodium azide (blocking 2 solution) for 30 min on ice. The primary antibody (SB4, SB5 or control) was added at 20 ug/mL in blocking 2 solution for 2 hours on ice at 4° C. The cells were washed 3× for 5 minutes each on ice. The secondary antibody (goat anti-Ms/Rb Alexa488 (1:500)) was added in blocking 2 solution for 1 hour in dark on ice at 4° C. The cells were washed 3× for 5 min each on ice and then were fixed with 4% PFA-PBS for 15 min in the dark at RT. The cells were washed 2× for 5 min each at RT and then stained with DAPI stain (1:1000) for 10 min at RT. The cells were washed 2× for 5 min each at RT and then were treated with prolong gold antifade. […] About 10-20% of the SB5 treated cells stained for SASB1.

[6] = system: MPanc96 cells (pancreatic ductal adenocarcinoma cell line); assay: Live indirect immunofluorescence cell surface staining, MPanc96; format: cell-based, human; settings: for Cells staining for cell surface SAS1B: MPanc96, primary antibody 20 ug/mL; for Immunoreaction with cell surface localized SAS1B: live MPanc96, primary antibodies 20 ug/mL
Method: as §1, §2

| Molecule | Cell killing and inhibition of cell proliferation (morphology) [1] | Binding of SAS1B on live cells (SAS1B+ tumor cell lines) | rhSAS1B that can be detected [2] [pmol/mL] | Cell killing and inhibition of cell proliferation (morphology) [3] | Cancer cells killed [4] [%] | Cells staining for cell surface SAS1B [5] | Recognition of cell surface SAS1B [5] | Cells staining for cell surface SAS1B [6] | Immunoreaction with cell surface localized SAS1B [6] |
| --- | --- | --- | --- | --- | --- | --- | --- | --- | --- |
| B1 | clear cell killing and inhibition of cell proliferation | bind SAS1B on live cells | 2.7 | a large number of rounded dead cells | 87 | – | – | – | – |
| B2 | – | – | – | – | – | 65-80% | recognize cell surface SAS1B in pancreatic cancer cell lines | 65-80% | immunoreact with cell surface localized SAS1B |
| B3 | clear cell killing and inhibition of cell proliferation | – | 2.7 | clear cell killing and inhibition of cell proliferation properties | 75 | 10-20% | recognize cell surface SAS1B in pancreatic cancer cell lines | 10-20% | immunoreact with cell surface localized SAS1B |
